In doi:10.1101/2025.01.07.631702 (bioRxiv, 2025):

B1: heavy-chain (HC-) FSAP (residues 24-291) (domain or fragment)
chain: FSLMSLLESLDPDWTPDQYDYSYEDYNQEENTSSTLTHAENPDWYYTEDQADPCQPNPCEHGGDCLVHGSTFTCSCLAPFSGNKCQKVQNTCKDNPCGRGQCLITQSPPYYRCVCKHPYTGPSCSQVVPVCRPNPCQNGATCSRHKRRSKFTCACPDQFKGKFCEIGSDDCYVGDGYSYRGKMNRTVNQHACLYWNSHLLLQENYNMFMEDAETHGIGEHNFCRNPDADEKPWCFIKVTNDKVKWEYCDVSACSAQDVAYPEESPTEP
modifications: labelled with the Monolith protein labelling kit RED-NHS (in the MST only)

How the values were obtained:
[1] = biological target: heavy-chain (HC-) FSAP (residues 24-291) (human) (UniProt Q14520); experiment: MST
dynamic light scattering = biological target: the molecule itself; experiment: dynamic light scattering

| Molecule | Kd [1] [µM] | binding result (dynamic light scattering) |
| --- | --- | --- |
| Histone-H1 (natural protein) | 2 | – |
| B1 | – | binds |
